{"source": "paper PMC10036606", "biological_target": "CD58 extracellular domain (human) (UniProt P19256)", "sequence (P19256 29-215)": "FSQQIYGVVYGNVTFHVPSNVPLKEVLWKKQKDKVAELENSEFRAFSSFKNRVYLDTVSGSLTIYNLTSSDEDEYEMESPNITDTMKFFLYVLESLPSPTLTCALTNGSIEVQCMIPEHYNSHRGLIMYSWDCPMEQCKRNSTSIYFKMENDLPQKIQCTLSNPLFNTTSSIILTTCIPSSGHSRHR", "data": [{"substance": "CD2 (from UniProt P06729 25-351) (receptor)", "values": [{"measurement": "glycocalyx exclusion on the SLB2 (reduction in fluorescence, contact tightness) in regions of CD58 accumulation under J8-GECI cells, against 20% in regions of ICAM-1 accumulation", "value": 45, "unit": "%"}]}]}
